Substitutions are numbered along the chain they refer to.
Tests used:
Nuclease H L54R = target: T1, Nuclease H L54R (synthetic construct, L54R); experiment: cell_activity; HEK293T; PAM AAC; details: tags: N-term SV40 NLS, XTEN linker + C-term nucleoplasmin NLS
T1 chain: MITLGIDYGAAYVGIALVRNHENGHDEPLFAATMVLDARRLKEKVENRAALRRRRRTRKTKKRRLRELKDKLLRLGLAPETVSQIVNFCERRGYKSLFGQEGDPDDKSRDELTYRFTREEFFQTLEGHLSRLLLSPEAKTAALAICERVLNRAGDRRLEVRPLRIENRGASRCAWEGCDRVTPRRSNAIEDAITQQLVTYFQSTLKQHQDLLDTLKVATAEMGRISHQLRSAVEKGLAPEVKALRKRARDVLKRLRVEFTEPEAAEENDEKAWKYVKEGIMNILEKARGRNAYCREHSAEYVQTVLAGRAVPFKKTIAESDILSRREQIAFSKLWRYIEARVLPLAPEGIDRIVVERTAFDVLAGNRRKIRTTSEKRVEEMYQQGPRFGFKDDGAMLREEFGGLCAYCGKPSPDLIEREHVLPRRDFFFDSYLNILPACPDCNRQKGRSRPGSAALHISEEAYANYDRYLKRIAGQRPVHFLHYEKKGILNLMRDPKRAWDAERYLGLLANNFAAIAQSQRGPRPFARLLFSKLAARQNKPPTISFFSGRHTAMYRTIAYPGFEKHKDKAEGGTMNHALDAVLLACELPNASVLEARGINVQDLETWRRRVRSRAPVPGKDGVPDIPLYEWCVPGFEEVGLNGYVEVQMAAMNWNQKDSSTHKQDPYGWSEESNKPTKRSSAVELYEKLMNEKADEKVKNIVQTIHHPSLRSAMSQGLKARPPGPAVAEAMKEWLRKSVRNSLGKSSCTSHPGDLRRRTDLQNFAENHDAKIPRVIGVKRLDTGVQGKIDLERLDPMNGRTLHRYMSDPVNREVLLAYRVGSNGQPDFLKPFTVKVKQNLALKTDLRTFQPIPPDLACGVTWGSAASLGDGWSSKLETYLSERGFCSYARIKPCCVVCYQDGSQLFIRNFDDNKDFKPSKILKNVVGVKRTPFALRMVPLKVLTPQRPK
Procedure: (§1) HEK293T cells were transfected with plasmids expressing the Nuclease H polypeptides and the gRNAs provided herein following the methods provided in Example 1 above. Gene editing efficiencies were determined by NGS following the methods also provided in Example 1. The NGS results were analyzed also following the methods provided in Example 1 above.
(§2) Indel ratios, referring to the percentage of NGS reads comprising indels, were calculated for the reference and for each variant. The indel ratios used for fold change calculations were the average of two technical replicates. To then calculate fold change in indel ratios, the indel ratio for each variant was divided by the indel ratio for the reference. […] Numbering is relative to the reference nuclease of SEQ ID NO: 64 (i.e., without an NLS).

Nuclease H D912R = target: T2, Nuclease H D912R (synthetic construct, D912R); experiment: cell_activity; HEK293T; PAM AAC; details: tags: N-term SV40 NLS, XTEN linker + C-term nucleoplasmin NLS
T2 chain: T1 chain with R54L, D912R
Procedure: as §1, §2

B1: H AAVS1-T5 RNA guide ; AAVS1-T5 target (H) (ssRNA ; dsDNA)
RNA: GGCUAUAAUCCAUGCUGACCGUUUCAAUCAACCUGAUCUCUCUGCUUGCGCUGCAGGCUUCAUAAGAUCAGUAGGUUGAAAAGAGCAUCCGUCCGACAUGCACUCCGGGAUGGGGCAGUCCCGGCUCUUGCGGUUCCCGAUGCAGUUAUGUGUCCGCGGAACACGGUGUCGGACACGUCGCAAGACAGGAUGUGAGCCCAUUAUCCACAUUAGGAUCAAUGUACGCAUGAGCAGUCCGCAAUGCCGGGGACGCU
DNA 1: GGCTATAATCCATGCTGACC
DNA 2: GGTCAGCATGGATTATAGCC
fold change in indel ratio vs reference (Nuclease H L54R): 16.6 fold indel vs reference
fold change in indel ratio vs reference (Nuclease H D912R): 4.21 fold indel vs reference

Reference: US20260275312, “CRISPR NUCLEASE POLYPEPTIDES AND GENE EDITING SYSTEMS COMPRISING SUCH” (ARBOR BIOTECHNOLOGIES, INC., published 2026)
